Measured values: patent publication US20200283478A1

Target: PCSK9Δhelix (human)
Test: phage spot ELISA

Sequence of PCSK9Δhelix (human) (prodomain, as listed by the source mutant limits assumed, chain 1 of 2): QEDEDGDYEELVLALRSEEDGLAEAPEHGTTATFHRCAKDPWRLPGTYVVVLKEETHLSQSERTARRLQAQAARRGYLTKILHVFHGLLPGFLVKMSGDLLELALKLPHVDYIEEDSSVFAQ
Sequence of PCSK9Δhelix (human) (chain, as listed by the source mutant limits assumed, chain 2 of 2): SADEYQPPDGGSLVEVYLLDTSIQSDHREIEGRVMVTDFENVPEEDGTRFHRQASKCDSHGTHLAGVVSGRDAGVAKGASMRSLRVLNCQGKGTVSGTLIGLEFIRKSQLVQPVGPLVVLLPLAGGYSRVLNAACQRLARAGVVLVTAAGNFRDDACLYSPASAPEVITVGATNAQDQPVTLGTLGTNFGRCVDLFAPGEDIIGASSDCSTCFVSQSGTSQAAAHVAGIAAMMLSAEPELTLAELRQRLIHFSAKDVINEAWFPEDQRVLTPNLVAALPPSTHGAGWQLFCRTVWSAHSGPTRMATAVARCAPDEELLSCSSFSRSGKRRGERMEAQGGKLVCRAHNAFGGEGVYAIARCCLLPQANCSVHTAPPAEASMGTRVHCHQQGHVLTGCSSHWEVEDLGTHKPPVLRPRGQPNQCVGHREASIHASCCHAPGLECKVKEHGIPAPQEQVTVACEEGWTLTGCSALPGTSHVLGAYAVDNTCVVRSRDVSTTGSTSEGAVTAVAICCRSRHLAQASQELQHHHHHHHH

| ELISA | s/n ratio | s/n | Binder |
| --- | --- | --- | --- |
| 0.657 | 5.01 |  | SGDFIPWNLVRIGLLR [SEQ ID NO 385] |
| 2.76 | 1.49 |  | TAFTSWEEYLDWVGSGCMEAWQCSLA [SEQ ID NO 337] |
| 1.21 |  | 1.85 | SGVCSDHYIGGKEVRC [SEQ ID NO 378] |
